Measurements published in patent publication US11319341B2, “Immune-stimulating soluble doxorubicin-conjugated complex” (Yafei (Shanghai) Biopharmaceutical Co., Ltd., priority 2016, dated 2022).
Non-standard residues stand in square brackets, D forms with d. Residues, ends and D or L forms follow the SMILES beside them. ξ: configuration not given here. *: point of attachment. Doxorubicin(3'-N) = COc1cccc2c1C(=O)c1c(O)c3c(c(O)c1C2=O)C[C@@](O)(C(=O)CO)C[C@@H]3O[C@H]1C[C@H](N*)[C@H](O)[C@H](C)O1; Hexanoyl(6-maleimido) = O=C1C=CC(=O)N1CCCCCC(=O)*; ξL = CC(C)CC(N)C(=O)O

Legend:
HT1080 cells = assay: Efficacy in HT1080 tumor model; format: in vivo; conditions: HT1080, nude mice, 18 umol/kg IV once weekly for 3 weeks
Source text: Test purpose: to investigate the anti-tumor efficacy of QHL-086, QHL-092, QHL-095, QHL-087, QHL-010, QHL-117 in mice model for tumor treatment.
Test drug: C3, QHL-086, QHL-092, QHL-095, QHL-087, QHL-010, QHL-117 injections and mitomycin injection, diluted to corresponding concentrations by physiological saline when testing.
(§1) 1. Animal: nude mice of 6-8 weeks old, all female.
1) HT1080 cells were purchased from American type culture collection (ATCC) and identified according the specification provided by ATCC.
(§2) 2) Production of tumor. […] Mice were randomly grouped after the tumor reached at least 100 mm^3. Then treatment began and the day on which the treatment began was day 1.
According to the clinical application of C3, QHL-086, QHL-092, QHL-095, QHL-087, QHL-010, QHL-117 were intravenously injected (IV). C3, QHL-086, QHL-092, QHL-095, QHL-087, QHL-010, QHL-117 were administered in a low and same dose of 18 umol/kg. The control group was administered by physiological saline. Drugs were administered once weekly for 3 weeks.

[1] = test system: Human liver cancer HepG2 cells; assay: Efficacy on human liver cancer HepG2 cells in nude mice; format: in vivo; conditions: 54 umol/kg IV once weekly for four weeks
Source text: Test purpose: to investigate the anti-tumor efficacy of some compounds of the invention in mice model for tumor treatment.
Test drug: QHL-095, QHL-008, QHL-086, QHL-116, QHL-119, QHL-092, QHL-006, QHL-089, QHL-005, QHL-007, QHL-096, QHL-012, QHL-087, QHL-117, QHL-120, QHL-093, QHL-010, QHL-090, QHL-009, QHL-011 injections and control group injection, diluted to corresponding concentrations by physiological saline when testing.
as §1
1) Human liver cancer HepG2 cells were purchased from American type culture collection (ATCC) and identified according the specification provided by ATCC.
as §2
According to the clinical application of QHL-095, QHL-008, QHL-086, QHL-116, QHL-119, QHL-092, QHL-006, QHL-089, QHL-005, QHL-007, QHL-096, QHL-012, QHL-087, QHL-117, QHL-120, QHL-093, QHL-010, QHL-090, QHL-009, QHL-011, drugs were intravenously injected (IV). Compounds and control groups were administered in a dose of 54 umol/kg. The control group was administered by physiological saline. Drugs were administered once weekly for four weeks.

[2] = test system: acidized human breast cancer (MDA-MB435) tumor tissue homogenates; assay: Activation efficiency of the linker by tumor tissue homogenates (HPLC); format: biochemical; conditions: Table 4-1; 37° C., MDA-MB435 tumor tissue homogenates pH6.0, compound 1 mg/ml
Procedure: When the C selected AAN, The activation of different S-C-A linker and control linker was evaluated in the activation assay, The S-C-A conjugate was used to dissolve and they were diluted for ten times to a concentration of 0.1 mM/ml. At 37° C., sample compounds were added into 100 μg acidized human breast cancer (MDA-MB435) tumor tissue homogenates (pH6.0) in a concentration of 1 mg/ml. The enzyme in tumor tissue homogenates could release and detected by HPLC, thereby comparing the activation efficiency of the linker by the tumor tissue.

[3] = Water solubility of freeze-dried compounds in water (observation and HPLC)

Row | Structure (SMILES) | solubility [3] | further results
1 | COc1cccc2c1C(=O)c1c(O)c3c(c(O)c1C2=O)C[C@@](O)(C(=O)CO)C[C@@H]3O[C@H]1C[C@H](N)[C@H](O)[C@H](C)O1 [C1 DOX, Doxorubicin] |  | Size of tumor (mm^3) Day 28 (HT1080 cells): 754.4 ± 587.4 mm^3; inhibitory rate on tumor Day 28 (HT1080 cells): 56.8%; Size of tumor (mm^3) Day 28 [1]: 1683.4 ± 1087.4 mm^3; inhibitory rate on tumor Day 28 [1]: 41.9%
2 | COc1cccc2c1C(=O)c1c(O)c3c(c(O)c1C2=O)C[C@@](O)(C(=O)CO)C[C@@H]3O[C@H]1C[C@H](NC(=O)C(CC(C)C)NC(=O)[C@H](CC(N)=O)NC(=O)[C@H](C)NC(=O)[C@H](C)N)[C@H](O)[C@H](C)O1 (stereo partly shown) [C2 AANL-DOX] (H-AAN[ξL]-{Doxorubicin(3'-N)}) | < 1000 µg/mL | Size of tumor (mm^3) Day 28 (HT1080 cells): 318.5 ± 197.6 mm^3; inhibitory rate on tumor Day 28 (HT1080 cells): 81.8%; Size of tumor (mm^3) Day 28 [1]: 1564 ± 689.4 mm^3; inhibitory rate on tumor Day 28 [1]: 46.0%; Activation (%) [2]: 42.1%
3 | COc1cccc2c1C(=O)c1c(O)c3c(c(O)c1C2=O)C[C@@](O)(C(=O)CO)C[C@@H]3O[C@H]1C[C@H](NC(=O)[C@H](CC(C)C)NC(=O)[C@H](CC(N)=O)NC(=O)[C@H](C)NC(=O)[C@H](C)NC(=O)CNC(=O)CCCCCN2C(=O)C=CC2=O)[C@H](O)[C@H](C)O1 [QHL-121] ({Hexanoyl(6-maleimido)}-GAANL-{Doxorubicin(3'-N)}) | > 10000 µg/mL | 
4 | COc1cccc2c1C(=O)c1c(O)c3c(c(O)c1C2=O)C[C@@](O)(C(=O)CO)C[C@@H]3O[C@H]1C[C@H](NC(=O)[C@H](CC(C)C)NC(=O)[C@H](CC(N)=O)NC(=O)[C@H](C)NC(=O)[C@H](C)NC(=O)[C@H](C)NC(=O)CCCCCN2C(=O)C=CC2=O)[C@H](O)[C@H](C)O1 [QHL-122] ({Hexanoyl(6-maleimido)}-AAANL-{Doxorubicin(3'-N)}) | > 10000 µg/mL | 
5 | COc1cccc2c1C(=O)c1c(O)c3c(c(O)c1C2=O)C[C@@](O)(C(=O)CO)C[C@@H]3O[C@H]1C[C@H](NC(=O)[C@H](CC(C)C)NC(=O)[C@H](CC(N)=O)NC(=O)[C@H](C)NC(=O)[C@H](C)NC(=O)[C@@H](NC(=O)CCCCCN2C(=O)C=CC2=O)C(C)C)[C@H](O)[C@H](C)O1 [QHL-123] ({Hexanoyl(6-maleimido)}-VAANL-{Doxorubicin(3'-N)}) |  | solubility (physchem): > 2000 µg/mL
6 | COc1cccc2c1C(=O)c1c(O)c3c(c(O)c1C2=O)C[C@@](O)(C(=O)CO)C[C@@H]3O[C@H]1C[C@H](NC(=O)[C@H](CC(C)C)NC(=O)[C@H](CC(N)=O)NC(=O)[C@H](C)NC(=O)[C@H](C)NC(=O)[C@H](CC(C)C)NC(=O)CCCCCN2C(=O)C=CC2=O)[C@H](O)[C@H](C)O1 [QHL-124] ({Hexanoyl(6-maleimido)}-LAANL-{Doxorubicin(3'-N)}) | > 5000 µg/mL | 
7 | CC[C@H](C)[C@H](NC(=O)CCCCCN1C(=O)C=CC1=O)C(=O)N[C@@H](C)C(=O)N[C@@H](C)C(=O)N[C@@H](CC(N)=O)C(=O)N[C@@H](CC(C)C)C(=O)N[C@H]1C[C@H](O[C@H]2C[C@](O)(C(=O)CO)Cc3c(O)c4c(c(O)c32)C(=O)c2c(OC)cccc2C4=O)O[C@@H](C)[C@H]1O [QHL-125] ({Hexanoyl(6-maleimido)}-IAANL-{Doxorubicin(3'-N)}) | > 2000 µg/mL | 
8 | COc1cccc2c1C(=O)c1c(O)c3c(c(O)c1C2=O)C[C@@](O)(C(=O)CO)C[C@@H]3O[C@H]1C[C@H](NC(=O)[C@H](CC(C)C)NC(=O)[C@H](CC(N)=O)NC(=O)[C@H](C)NC(=O)[C@H](C)NC(=O)[C@H](CCSC)NC(=O)CCCCCN2C(=O)C=CC2=O)[C@H](O)[C@H](C)O1 [QHL-126] ({Hexanoyl(6-maleimido)}-MAANL-{Doxorubicin(3'-N)}) | > 2000 µg/mL | 
9 | COc1cccc2c1C(=O)c1c(O)c3c(c(O)c1C2=O)C[C@@](O)(C(=O)CO)C[C@@H]3O[C@H]1C[C@H](NC(=O)[C@H](CC(C)C)NC(=O)[C@H](CC(N)=O)NC(=O)[C@H](C)NC(=O)[C@H](C)NC(=O)[C@H](CO)NC(=O)CCCCCN2C(=O)C=CC2=O)[C@H](O)[C@H](C)O1 [QHL-129] ({Hexanoyl(6-maleimido)}-SAANL-{Doxorubicin(3'-N)}) | > 5000 µg/mL | 
10 | COc1cccc2c1C(=O)c1c(O)c3c(c(O)c1C2=O)C[C@@](O)(C(=O)CO)C[C@@H]3O[C@H]1C[C@H](NC(=O)[C@H](CC(C)C)NC(=O)[C@H](CC(N)=O)NC(=O)[C@H](C)NC(=O)[C@H](C)NC(=O)[C@@H](NC(=O)CCCCCN2C(=O)C=CC2=O)[C@@H](C)O)[C@H](O)[C@H](C)O1 [QHL-130] ({Hexanoyl(6-maleimido)}-TAANL-{Doxorubicin(3'-N)}) | > 2000 µg/mL | 
11 | COc1cccc2c1C(=O)c1c(O)c3c(c(O)c1C2=O)C[C@@](O)(C(=O)CO)C[C@@H]3O[C@H]1C[C@H](NC(=O)[C@H](CC(C)C)NC(=O)[C@H](CC(N)=O)NC(=O)[C@H](C)NC(=O)[C@H](C)NC(=O)[C@H](CS)NC(=O)CCCCCN2C(=O)C=CC2=O)[C@H](O)[C@H](C)O1 [QHL-131] ({Hexanoyl(6-maleimido)}-CAANL-{Doxorubicin(3'-N)}) | > 10000 µg/mL | 
12 | COc1cccc2c1C(=O)c1c(O)c3c(c(O)c1C2=O)C[C@@](O)(C(=O)CO)C[C@@H]3O[C@H]1C[C@H](NC(=O)[C@H](CC(C)C)NC(=O)[C@H](CC(N)=O)NC(=O)[C@H](C)NC(=O)[C@H](C)NC(=O)[C@H](Cc2ccc(O)cc2)NC(=O)CCCCCN2C(=O)C=CC2=O)[C@H](O)[C@H](C)O1 [QHL-132] ({Hexanoyl(6-maleimido)}-YAANL-{Doxorubicin(3'-N)}) | > 2000 µg/mL | 
13 | COc1cccc2c1C(=O)c1c(O)c3c(c(O)c1C2=O)C[C@@](O)(C(=O)CO)C[C@@H]3O[C@H]1C[C@H](NC(=O)[C@H](CC(C)C)NC(=O)[C@H](CC(N)=O)NC(=O)[C@H](C)NC(=O)[C@H](C)NC(=O)[C@H](CC(N)=O)NC(=O)CCCCCN2C(=O)C=CC2=O)[C@H](O)[C@H](C)O1 [QHL-133] ({Hexanoyl(6-maleimido)}-NAANL-{Doxorubicin(3'-N)}) | > 2000 µg/mL | 
14 | COc1cccc2c1C(=O)c1c(O)c3c(c(O)c1C2=O)C[C@@](O)(C(=O)CO)C[C@@H]3O[C@H]1C[C@H](NC(=O)[C@H](CC(C)C)NC(=O)[C@H](CC(N)=O)NC(=O)[C@H](C)NC(=O)[C@H](C)NC(=O)[C@H](CCC(N)=O)NC(=O)CCCCCN2C(=O)C=CC2=O)[C@H](O)[C@H](C)O1 [QHL-134] ({Hexanoyl(6-maleimido)}-QAANL-{Doxorubicin(3'-N)}) | > 5000 µg/mL | 
15 | COc1cccc2c1C(=O)c1c(O)c3c(c(O)c1C2=O)C[C@@](O)(C(=O)CO)C[C@@H]3O[C@H]1C[C@H](NC(=O)[C@H](CC(C)C)NC(=O)[C@H](CC(N)=O)NC(=O)[C@H](C)NC(=O)[C@H](C)NC(=O)[C@H](CCCCN)NC(=O)CCCCCN2C(=O)C=CC2=O)[C@H](O)[C@H](C)O1 [QHL-135] ({Hexanoyl(6-maleimido)}-KAANL-{Doxorubicin(3'-N)}) | > 5000 µg/mL | 
16 | COc1cccc2c1C(=O)c1c(O)c3c(c(O)c1C2=O)C[C@@](O)(C(=O)CO)C[C@@H]3O[C@H]1C[C@H](NC(=O)[C@H](CC(C)C)NC(=O)[C@H](CC(N)=O)NC(=O)[C@H](C)NC(=O)[C@H](C)NC(=O)[C@H](CCCNC(=N)N)NC(=O)CCCCCN2C(=O)C=CC2=O)[C@H](O)[C@H](C)O1 [QHL-136] ({Hexanoyl(6-maleimido)}-RAANL-{Doxorubicin(3'-N)}) | > 2000 µg/mL | 
17 | COc1cccc2c1C(=O)c1c(O)c3c(c(O)c1C2=O)C[C@@](O)(C(=O)CO)C[C@@H]3O[C@H]1C[C@H](NC(=O)[C@H](CC(C)C)NC(=O)[C@H](CC(N)=O)NC(=O)[C@H](C)NC(=O)[C@H](C)NC(=O)[C@H](Cc2c[nH]cn2)NC(=O)CCCCCN2C(=O)C=CC2=O)[C@H](O)[C@H](C)O1 [QHL-137] ({Hexanoyl(6-maleimido)}-HAANL-{Doxorubicin(3'-N)}) | > 5000 µg/mL | 
